Experiments:
Test in all cases: AUC; sedimentation velocity, 42 000 rpm, 20°C, 20 mM Tris pH 8, 0.15 M NaCl, 1 mM TCEP, absorbance at 280 nm, c(S) analysis with SEDFIT
Details in all cases: both partners purified
[1] = target: T1, Mis12a:Spc105R^1707–1960 complex (Drosophila melanogaster, UniProt Q9VS01 1-181; Q7JZC9 1-194; Q9VYX4 1-183; M9PIC9 1707-1960)
T1 construct: Mis12 subunit of the Drosophila melanogaster Mis12 complex; Nnf1a (Nnf1R-1), Drosophila melanogaster; Kmn1, the Nsl1 orthologue of Drosophila melanogaster; source: E. coli BL21(DE3) Rosetta, co-expressed (pST44), purified (His-Trap, ResourceQ, Superdex 200); copies: 1 + 1 + 1 + 1
T1 sequence (looked up) 1: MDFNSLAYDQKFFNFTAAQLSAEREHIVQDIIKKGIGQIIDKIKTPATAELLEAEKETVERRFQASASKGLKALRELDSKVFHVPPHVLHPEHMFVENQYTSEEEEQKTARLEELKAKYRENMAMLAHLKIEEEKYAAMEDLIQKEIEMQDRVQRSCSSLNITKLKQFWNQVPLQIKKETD
T1 sequence (looked up) 2: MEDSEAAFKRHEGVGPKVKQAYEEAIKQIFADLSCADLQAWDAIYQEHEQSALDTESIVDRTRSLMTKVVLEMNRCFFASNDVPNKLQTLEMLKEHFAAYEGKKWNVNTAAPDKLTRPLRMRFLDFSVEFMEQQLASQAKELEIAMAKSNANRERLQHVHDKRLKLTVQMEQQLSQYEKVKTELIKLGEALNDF
T1 sequence (looked up) 3: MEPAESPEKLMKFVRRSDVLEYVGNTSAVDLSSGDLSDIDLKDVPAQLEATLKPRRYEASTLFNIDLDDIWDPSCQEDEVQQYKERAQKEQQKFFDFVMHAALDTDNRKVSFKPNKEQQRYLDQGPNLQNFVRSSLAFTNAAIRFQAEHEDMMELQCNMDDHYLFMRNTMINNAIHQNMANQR
T1 sequence (looked up) 4: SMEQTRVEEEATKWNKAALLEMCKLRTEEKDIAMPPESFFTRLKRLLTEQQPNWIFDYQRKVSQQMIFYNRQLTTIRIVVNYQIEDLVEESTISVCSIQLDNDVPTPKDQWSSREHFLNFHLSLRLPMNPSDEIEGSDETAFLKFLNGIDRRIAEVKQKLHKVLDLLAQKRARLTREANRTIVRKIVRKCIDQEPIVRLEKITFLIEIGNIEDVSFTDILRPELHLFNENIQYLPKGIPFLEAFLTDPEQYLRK

[2] = target: T2, DmMis12a complex (Mis12:Nnf1a:Kmn1) (Drosophila melanogaster, UniProt Q9VS01 1-181; Q7JZC9 1-194; Q9VYX4 1-183)
T2 construct: Mis12 subunit of the Drosophila melanogaster Mis12 complex; Nnf1a (Nnf1R-1), Drosophila melanogaster; Kmn1, the Nsl1 orthologue of Drosophila melanogaster; source: E. coli BL21(DE3) Rosetta, co-expressed (pST44), purified (His-Trap, ResourceQ, Superdex 200); copies: 1 + 1 + 1
T2 sequence (looked up) 1: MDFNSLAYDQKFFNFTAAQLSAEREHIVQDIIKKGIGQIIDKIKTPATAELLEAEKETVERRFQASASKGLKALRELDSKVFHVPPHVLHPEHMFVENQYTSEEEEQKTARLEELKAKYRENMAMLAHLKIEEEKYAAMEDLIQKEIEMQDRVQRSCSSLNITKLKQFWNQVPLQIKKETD
T2 sequence (looked up) 2: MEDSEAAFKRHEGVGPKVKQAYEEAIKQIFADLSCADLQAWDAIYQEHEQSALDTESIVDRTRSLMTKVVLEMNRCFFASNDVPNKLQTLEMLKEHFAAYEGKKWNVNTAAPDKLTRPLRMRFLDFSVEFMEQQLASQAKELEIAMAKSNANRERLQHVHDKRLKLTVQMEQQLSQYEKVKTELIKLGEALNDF
T2 sequence (looked up) 3: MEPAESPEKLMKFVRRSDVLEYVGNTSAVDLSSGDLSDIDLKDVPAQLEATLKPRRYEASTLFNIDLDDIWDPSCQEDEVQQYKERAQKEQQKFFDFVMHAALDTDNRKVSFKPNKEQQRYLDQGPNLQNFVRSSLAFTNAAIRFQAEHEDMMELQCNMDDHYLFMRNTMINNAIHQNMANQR

[3] = target: T3, DmMis12b complex (Mis12:Nnf1b:Kmn1) (Drosophila melanogaster, UniProt Q9VS01 1-181; Q8IPW3 1-204; Q9VYX4 1-183)
T3 construct: Mis12 subunit of the Drosophila melanogaster Mis12 complex; Nnf1b (Nnf1R-2), Drosophila melanogaster; Kmn1, the Nsl1 orthologue of Drosophila melanogaster; source: E. coli BL21(DE3) Rosetta, co-expressed (pST44), purified (His-Trap, ResourceQ, Superdex 200); copies: 1 + 1 + 1
T3 sequence (looked up) 1: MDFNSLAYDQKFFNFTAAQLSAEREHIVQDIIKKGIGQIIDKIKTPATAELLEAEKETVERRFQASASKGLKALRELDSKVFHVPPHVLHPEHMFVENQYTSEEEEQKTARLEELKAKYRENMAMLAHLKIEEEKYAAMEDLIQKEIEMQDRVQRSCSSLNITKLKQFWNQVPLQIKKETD
T3 sequence (looked up) 2: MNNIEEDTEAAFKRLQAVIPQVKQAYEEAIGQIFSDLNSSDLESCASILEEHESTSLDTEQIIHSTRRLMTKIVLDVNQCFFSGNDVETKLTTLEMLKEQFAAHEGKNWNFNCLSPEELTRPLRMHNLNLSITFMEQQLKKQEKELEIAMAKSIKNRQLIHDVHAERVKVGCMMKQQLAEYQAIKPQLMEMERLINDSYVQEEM
T3 sequence (looked up) 3: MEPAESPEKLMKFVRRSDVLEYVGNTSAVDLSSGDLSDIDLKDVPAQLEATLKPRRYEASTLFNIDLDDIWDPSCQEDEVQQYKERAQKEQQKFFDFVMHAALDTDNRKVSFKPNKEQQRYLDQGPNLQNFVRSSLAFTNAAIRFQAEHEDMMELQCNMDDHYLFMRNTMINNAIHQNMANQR

B1: DmCENP-C^1–105 (domain or fragment, Drosophila melanogaster, UniProt Q9VHP9 1-105, looked up)
chain: MSKPQNNDTLELDDILSQPVKDKERFAAFMMRKLAENKPAQNDNLFGNFKLDFDLDFEVPLIKKSQAKPKSKLPEVQPLGELVSKNSAATEKVNEPPVDQAPNEN
notes: source: E. coli BL21(DE3) Rosetta, purified (His-Trap, ResourceQ, Superdex 200)
- stoichiometry N [1]: 1
- stoichiometry N [2]: 1

B2: Spc105R^1707–1960 (domain or fragment, Drosophila melanogaster, UniProt M9PIC9 1707-1960, looked up)
chain: SMEQTRVEEEATKWNKAALLEMCKLRTEEKDIAMPPESFFTRLKRLLTEQQPNWIFDYQRKVSQQMIFYNRQLTTIRIVVNYQIEDLVEESTISVCSIQLDNDVPTPKDQWSSREHFLNFHLSLRLPMNPSDEIEGSDETAFLKFLNGIDRRIAEVKQKLHKVLDLLAQKRARLTREANRTIVRKIVRKCIDQEPIVRLEKITFLIEIGNIEDVSFTDILRPELHLFNENIQYLPKGIPFLEAFLTDPEQYLRK
notes: Soluble only when co-expressed with the Mis12a or Mis12b complex
- stoichiometry N [3]: 1
- stoichiometry N [2]: 1

Source: paper PMC4772808, “Insights from the reconstitution of the divergent outer kinetochore of Drosophila melanogaster” (Open Biology, 2016)
